We go through three substances from paper PMC12140367, “Discovery, Herbicidal Activity and Biosynthesis of a Novel Natural Tetramic Acid from Alternaria Species” (Advanced Science, 2025).

Format in all cases: biochemical, Alternaria alternata
One series deals with CCC(O)(CC(=O)O)C(=O)O. The series can be described thus: UPLC-MS quantification of 3EMA formed. The note with it: 250 mM potassium phosphate pH 7.0, 30 °C.
The next series has as its system CCC(=O)C(=O)O. The series can be described thus: UPLC-MS quantification of 2EMA formed. The note with it: 1 mM acetyl-CoA, 10 mM MgCl2, potassium phosphate pH 7.5, 30 °C.
The test system of another series is CCC(C(=O)O)C(O)C(=O)O. The series can be described thus: UPLC-MS quantification of OVA formed. The note with it: 1 mM NAD+, 5 mM MnCl2, 1 mM DTT, MOPS-KCl pH 7.5, 30 °C.

IPMDH (Alternaria alternata): the Km in the series on CCC(O)(CC(=O)O)C(=O)O came to 786.26 µM.
On to IPMS (Alternaria alternata), for which the Km in the series on CCC(=O)C(=O)O worked out at 164.36 µM.
Regarding ISMD (Alternaria alternata), in the series on CCC(C(=O)O)C(O)C(=O)O, the Km is listed as 87.20 µM.
